Results published in patent CN118076384A.

Molecular target: PDL1 on MDA MB-231 human breast cancer cells (human) (UniProt Q9NZQ7)
Assay: flow cytometry on MDA MB-231 cells, anti-human IgG Fc secondary antibody

Sequence of UniProt Q9NZQ7 (Q9NZQ7 19-290): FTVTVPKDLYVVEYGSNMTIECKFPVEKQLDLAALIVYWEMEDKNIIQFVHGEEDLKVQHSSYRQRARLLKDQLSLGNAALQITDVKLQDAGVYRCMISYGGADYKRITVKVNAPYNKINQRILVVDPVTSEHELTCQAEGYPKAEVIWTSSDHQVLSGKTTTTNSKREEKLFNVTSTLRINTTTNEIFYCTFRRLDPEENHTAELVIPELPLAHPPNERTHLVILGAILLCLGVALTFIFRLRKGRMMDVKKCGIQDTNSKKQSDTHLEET

Substance: 德瓦鲁单抗(durvalumab) (antibody)
- Kd: 167 pM
